These sequences were tested on Escherichia coli TOP10 (assay: shrunken log2 fold change of peptide-encoding DNA abundance (4.5 h post-induction vs induction); higher = less antimicrobial activity (less host growth inhibition)). Conditions: time post-induction: 4.5 h; library: site-saturation at positions 5, 18, 19, 20.
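Note: peptides expressed intracellularly from a pBAD plasmid library in pooled LB shake-flask culture, induced with 0.3% L-arabinose, DNA abundance read by NGS, three biological replicates, DESeq2 with apeglm shrinkage.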

Row | Sequence | shrunken log2 fold change
1 | RRIRHRPPRLPRPRPRPWNRPRP | -0.297
2 | RRIRHRPPRLPRPRPRPWPVPRP | 0.155
3 | RRIRHRPPRLPRPRPRPWRSPRP | -0.0818
4 | RRIRHRPPRLPRPRPRPWRYPRP | -0.49
5 | RRIRHRPPRLPRPRPRPWSAPRP | -0.547
6 | RRIRHRPPRLPRPRPRPWSIPRP | 0.0612
7 | RRIRHRPPRLPRPRPRPWSRPRP | 0.0245
8 | RRIRHRPPRLPRPRPRPWVDPRP | 0.0471
9 | RRIRHRPPRLPRPRPRPWVRPRP | 0.0215
10 | RRIRHRPPRLPRPRPRPWYFPRP | -0.813
11 | RRIRHRPPRLPRPRPRPYAHPRP | -0.702
12 | RRIRHRPPRLPRPRPRPYCEPRP | -0.114
13 | RRIRHRPPRLPRPRPRPYCPPRP | -0.0225
14 | RRIRHRPPRLPRPRPRPYEVPRP | 0.028
15 | RRIRHRPPRLPRPRPRPYEYPRP | -0.4
16 | RRIRHRPPRLPRPRPRPYGEPRP | -1.23
17 | RRIRHRPPRLPRPRPRPYHLPRP | -0.085
18 | RRIRHRPPRLPRPRPRPYHMPRP | -0.0151
19 | RRIRHRPPRLPRPRPRPYHNPRP | -0.853
20 | RRIRHRPPRLPRPRPRPYICPRP | -0.153
21 | RRIRHRPPRLPRPRPRPYKGPRP | -0.33
22 | RRIRHRPPRLPRPRPRPYKSPRP | -0.00494
23 | RRIRHRPPRLPRPRPRPYLCPRP | -0.0059
24 | RRIRHRPPRLPRPRPRPYLQPRP | -0.0639
25 | RRIRHRPPRLPRPRPRPYLSPRP | -0.221

Row | Sequence | shrunken log2 fold change
26 | RRIRHRPPRLPRPRPRPYLWPRP | 0.0116
27 | RRIRHRPPRLPRPRPRPYMHPRP | -0.448
28 | RRIRHRPPRLPRPRPRPYMWPRP | -1.86
29 | RRIRHRPPRLPRPRPRPYSGPRP | -0.151
30 | RRIRHRPPRLPRPRPRPYTLPRP | -0.611
31 | RRIRHRPPRLPRPRPRPYVFPRP | -0.508
32 | RRIRHRPPRLPRPRPRPYVKPRP | -0.509
33 | RRIRHRPPRLPRPRPRPYYWPRP | -0.0132
34 | RRIRIRPPRLPRPRPRPAAFPRP | -0.234
35 | RRIRIRPPRLPRPRPRPACWPRP | 0.222
36 | RRIRIRPPRLPRPRPRPAHSPRP | -0.0596
37 | RRIRIRPPRLPRPRPRPAIEPRP | -0.0797
38 | RRIRIRPPRLPRPRPRPAIQPRP | -0.143
39 | RRIRIRPPRLPRPRPRPAKPPRP | 0.297
40 | RRIRIRPPRLPRPRPRPALIPRP | -0.0428
41 | RRIRIRPPRLPRPRPRPALKPRP | -0.0298
42 | RRIRIRPPRLPRPRPRPALWPRP | 0.199
43 | RRIRIRPPRLPRPRPRPAMGPRP | 1.17
44 | RRIRIRPPRLPRPRPRPANFPRP | -0.554
45 | RRIRIRPPRLPRPRPRPANIPRP | -0.383
46 | RRIRIRPPRLPRPRPRPAPGPRP | 0.371
47 | RRIRIRPPRLPRPRPRPAQLPRP | -0.177
48 | RRIRIRPPRLPRPRPRPAQQPRP | -0.0315
49 | RRIRIRPPRLPRPRPRPAQRPRP | 0.0422
50 | RRIRIRPPRLPRPRPRPAQVPRP | -0.00946

Row | Sequence | shrunken log2 fold change
51 | RRIRIRPPRLPRPRPRPAREPRP | 0.604
52 | RRIRIRPPRLPRPRPRPARKPRP | 0.462
53 | RRIRIRPPRLPRPRPRPASKPRP | -0.116
54 | RRIRIRPPRLPRPRPRPASYPRP | -0.0337
55 | RRIRIRPPRLPRPRPRPATVPRP | -0.319
56 | RRIRIRPPRLPRPRPRPAVLPRP | 0.0102
57 | RRIRIRPPRLPRPRPRPAVRPRP | 0.445
58 | RRIRIRPPRLPRPRPRPAWFPRP | -0.00823
59 | RRIRIRPPRLPRPRPRPAWTPRP | 0.304
60 | RRIRIRPPRLPRPRPRPAYAPRP | -0.197
61 | RRIRIRPPRLPRPRPRPAYQPRP | -0.76
62 | RRIRIRPPRLPRPRPRPCADPRP | -0.289
63 | RRIRIRPPRLPRPRPRPCAEPRP | -0.358
64 | RRIRIRPPRLPRPRPRPCCHPRP | -0.486
65 | RRIRIRPPRLPRPRPRPCCLPRP | -0.478
66 | RRIRIRPPRLPRPRPRPCDGPRP | -0.00133
67 | RRIRIRPPRLPRPRPRPCEAPRP | -0.395
68 | RRIRIRPPRLPRPRPRPCFNPRP | -0.87
69 | RRIRIRPPRLPRPRPRPCFYPRP | -0.694
70 | RRIRIRPPRLPRPRPRPCGEPRP | -0.0104
71 | RRIRIRPPRLPRPRPRPCGWPRP | 0.0831
72 | RRIRIRPPRLPRPRPRPCHEPRP | -0.0297
73 | RRIRIRPPRLPRPRPRPCHHPRP | 0.0314
74 | RRIRIRPPRLPRPRPRPCKCPRP | -0.0887
75 | RRIRIRPPRLPRPRPRPCKKPRP | -0.0718

Row | Sequence | shrunken log2 fold change
76 | RRIRIRPPRLPRPRPRPCMIPRP | -0.502
77 | RRIRIRPPRLPRPRPRPCMVPRP | -1.06
78 | RRIRIRPPRLPRPRPRPCPDPRP | -0.127
79 | RRIRIRPPRLPRPRPRPCQAPRP | -0.025
80 | RRIRIRPPRLPRPRPRPCQHPRP | -0.183
81 | RRIRIRPPRLPRPRPRPCQRPRP | -0.268
82 | RRIRIRPPRLPRPRPRPCTHPRP | -0.791
83 | RRIRIRPPRLPRPRPRPCTIPRP | -0.25
84 | RRIRIRPPRLPRPRPRPCYEPRP | -0.303
85 | RRIRIRPPRLPRPRPRPCYHPRP | -0.265
86 | RRIRIRPPRLPRPRPRPCYNPRP | -0.329
87 | RRIRIRPPRLPRPRPRPDDKPRP | -0.266
88 | RRIRIRPPRLPRPRPRPDDLPRP | 0.118
89 | RRIRIRPPRLPRPRPRPDDNPRP | -0.27
90 | RRIRIRPPRLPRPRPRPDDRPRP | 0.0115
91 | RRIRIRPPRLPRPRPRPDEVPRP | -0.0316
92 | RRIRIRPPRLPRPRPRPDHMPRP | -0.87
93 | RRIRIRPPRLPRPRPRPDIGPRP | -0.251
94 | RRIRIRPPRLPRPRPRPDITPRP | -0.0982
95 | RRIRIRPPRLPRPRPRPDKGPRP | 0.0101
96 | RRIRIRPPRLPRPRPRPDPPPRP | 0.075
97 | RRIRIRPPRLPRPRPRPDTDPRP | -0.194
98 | RRIRIRPPRLPRPRPRPDVEPRP | -0.054
99 | RRIRIRPPRLPRPRPRPDWEPRP | -0.0114
100 | RRIRIRPPRLPRPRPRPEDDPRP | -0.16

Row | Sequence | shrunken log2 fold change
101 | RRIRIRPPRLPRPRPRPEDWPRP | 0.0775
102 | RRIRIRPPRLPRPRPRPEEHPRP | 0.023
103 | RRIRIRPPRLPRPRPRPEEQPRP | 0.0175
104 | RRIRIRPPRLPRPRPRPEFIPRP | -0.00702
105 | RRIRIRPPRLPRPRPRPEFMPRP | -0.25
106 | RRIRIRPPRLPRPRPRPEFTPRP | -0.1
107 | RRIRIRPPRLPRPRPRPEFVPRP | -0.0754
108 | RRIRIRPPRLPRPRPRPEGEPRP | 0.134
109 | RRIRIRPPRLPRPRPRPEGVPRP | 0.115
110 | RRIRIRPPRLPRPRPRPEHIPRP | -0.142
111 | RRIRIRPPRLPRPRPRPEKPPRP | -0.0144
112 | RRIRIRPPRLPRPRPRPEKWPRP | -0.0117
113 | RRIRIRPPRLPRPRPRPEPLPRP | 0.0641
114 | RRIRIRPPRLPRPRPRPEQLPRP | -0.148
115 | RRIRIRPPRLPRPRPRPEQSPRP | 0.168
116 | RRIRIRPPRLPRPRPRPESDPRP | 0.052
117 | RRIRIRPPRLPRPRPRPEVIPRP | -0.0583
118 | RRIRIRPPRLPRPRPRPEWGPRP | -0.0166
119 | RRIRIRPPRLPRPRPRPFAHPRP | -0.241
120 | RRIRIRPPRLPRPRPRPFAVPRP | 0.0425
121 | RRIRIRPPRLPRPRPRPFCVPRP | -0.713
122 | RRIRIRPPRLPRPRPRPFDCPRP | -0.0028
123 | RRIRIRPPRLPRPRPRPFDIPRP | -1.02
124 | RRIRIRPPRLPRPRPRPFFCPRP | -0.106
125 | RRIRIRPPRLPRPRPRPFFNPRP | -0.501

Row | Sequence | shrunken log2 fold change
126 | RRIRIRPPRLPRPRPRPFIFPRP | -0.696
127 | RRIRIRPPRLPRPRPRPFKQPRP | -0.246
128 | RRIRIRPPRLPRPRPRPFKWPRP | -0.128
129 | RRIRIRPPRLPRPRPRPFMSPRP | -0.308
130 | RRIRIRPPRLPRPRPRPFPAPRP | -0.299
131 | RRIRIRPPRLPRPRPRPFPVPRP | -0.339
132 | RRIRIRPPRLPRPRPRPFQIPRP | 0.0698
133 | RRIRIRPPRLPRPRPRPFRGPRP | -0.0233
134 | RRIRIRPPRLPRPRPRPFRMPRP | -0.91
135 | RRIRIRPPRLPRPRPRPFRVPRP | -0.369
136 | RRIRIRPPRLPRPRPRPFSMPRP | -0.0858
137 | RRIRIRPPRLPRPRPRPFVAPRP | -0.158
138 | RRIRIRPPRLPRPRPRPFWAPRP | -0.0374
139 | RRIRIRPPRLPRPRPRPFWDPRP | -0.0885
140 | RRIRIRPPRLPRPRPRPFWTPRP | -0.353
141 | RRIRIRPPRLPRPRPRPGACPRP | -0.243
142 | RRIRIRPPRLPRPRPRPGAEPRP | 0.0273
143 | RRIRIRPPRLPRPRPRPGCIPRP | -0.523
144 | RRIRIRPPRLPRPRPRPGCSPRP | -0.391
145 | RRIRIRPPRLPRPRPRPGDVPRP | -0.227
146 | RRIRIRPPRLPRPRPRPGEIPRP | -0.123
147 | RRIRIRPPRLPRPRPRPGEWPRP | -0.01
148 | RRIRIRPPRLPRPRPRPGFGPRP | 0.28
149 | RRIRIRPPRLPRPRPRPGGQPRP | 0.112
150 | RRIRIRPPRLPRPRPRPGHHPRP | -0.309
